Tests used:
[1] = tested on: MS2 coat protein; experiment: apparent KD of MS2 coat protein, switch ON state; designed switch direction (-1 OFF switch, 1 ON switch): -1; higher = weaker reporter binding; details: FMN input: 0 or 200 uM; Eterna round: R93 (includes R88 designs)
Method in brief: (§1)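 SNAP-549-labelled MS2 coat protein was titrated onto designed RNA switches that had been transcribed on-chip from Illumina sequencing clusters. Amounts doubled from 0.7 or 1.5 nM to 3 µM in 100 mM Tris-HCl pH 7.5, 80 mM KCl, 4 mM MgCl2, with constant ligand or without. Apparent KD is the median per design of normalised cluster binding-curve fits.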

[2] = tested on: MS2 coat protein; experiment: apparent KD of MS2 coat protein, switch OFF state (with FMN for OFF switches, without FMN for ON switches); designed switch direction (-1 OFF switch, 1 ON switch): -1; higher = weaker reporter binding; details: FMN input: 0 or 200 uM; Eterna round: R93 (includes R88 designs)
Method in brief: as §1

Sequence | apparent KD of MS2 coat protein [1] [nM] | apparent KD of MS2 coat protein [2] [nM]
AACUGACAUGAGGAUCACCCAUGUCAGGAUAUGCUUCAUAAAAACAAACAAAAAUGAUGCAGAAGGGACAUGGA [Design 30 :P Sub-opt 6] | 19.6 | 32.3
AACUGGUGAGGAUAUCUGGAUAGGAAAAAGAAAACCUAUCCAGAGAAGGCACAUGAGGAUCACCCAUGUAAAAA [JL cataway mod 9] | 56 | 51.9
AAGAAACAUGAGGAUCACCCAUGUGAGGAUAUACAAAAGAAAAGAAAAGAAAGAAGAAGUAGAAGGCACAAAGG [Djedkare Shemai] | 22.5 | 20.3
AAGAAACAUGAGGAUCACCCAUGUGAGGAUAUCGAAAAGAAAAGAAAAGAAAGAAGAAUGAGAAGGCACAAAGG [Shed—] | 30.9 | 29.8
AAGAAACAUGAGGAUCACCCAUGUGAGGAUAUUCAAGAAAGAAAGAAAGAAAGAAGAAGAAGAAGGCACAAAGG [Lucius Seius Strabo] | 29 | 32
AAGAACCAAGGAUAUACAAAAUAAAAGAAAAGAAAGAAAGAACAUGAGGAUCACCCAUGUAGAAGGUGGAAGAA [Khaankhre Sobekhotep] | 47.7 | 41.6
AAGAACCAAGGAUAUACAUGAGGAUCACCCAUGUAAAAGAAAGAAGGGAAAGAGAAAAGUAGAAGGUGGAAGAA [Djedkaure Shebitku] | 28.3 | 22.7
AAGAACGAAGGAUAUACAUGAGGAUCACCCAUGUAAAAGAAAGAAAGGGAAAAGAAAAGUAGAAGGUCGAAGAA [Sekhemkheperre Osorkon I] | 28.3 | 31.2
AAGAACGGAGGAUAUACAUGAGGAUCACCCAUGUAAAAGAAAGAAGGGAAAGAGAAAAGUAGAAGGCCGAAGAA [Usermaatre-setepenamun Pedubast] | 28.1 | 50.8
AAGAACGUAGGAUAUACUAAAGAAAUGAAAAGAAAUAAAGAACAUGAGGAUCACCCAUGUAGAAGGACGAAGAA [Nebdjefare] | 29.1 | 25.2
AAGAACUCAGGAUAUACAUGAAAGAAAGAAAAGAAAAGAAAACAUGAGGAUCACCCAUGUAGAAGGGAGAAGAA [EteRNA is fun!] | 39.7 | 30.6
AAGAACUCAGGAUAUACUAAAGAAAUGAAAAGAAAGAAAGAACAUGAGGAUCACCCAUGUAGAAGGGAGAAGAA [Qareh Khawoserre] | 86.4 | 35.4
AAGAACUGAGGAUAUACAUGAGGAUCACCCAUGUAAAAGAAAGAAAGGGAAAAGAAAAGUAGAAGGCAGAAGAA [Menmaatre-setpenptah Ramesses XI] | 51.1 | 59.4
AAGAAGCAAGGAUAUACAUGAGGAUCACCCAUGUAAAAGAAAGAAAAGGGAAAGAAAAGUAGAAGGUGCGAAAA [Ruby 70] | 29.9 | 51.9
AAGAAGGAAGGAUAUACAUGAAAGAAAGAAAAGAAAAGAAAACAUGAGGAUCACCCAUGUAGAAGGUCCUAGAA [EteRNA is fun!] | 39.6 | 80.5
AAGAAGGAAGGAUAUACAUGAGGAUCACCCAUGUAAAAGAAAGAGGGAAAAGAGAAAAGUAGAAGGUCCAAGAA [Ptolemy V Epiphanes] | 26.5 | 30.3
AAGAAGGGAGGAUAUACAAAAUAAAAGAAAAGAAAGAAAGAACAUGAGGAUCACCCAUGUAGAAGGUCCAAGAA [Imyremeshaw] | 48.1 | 71
AAGAAGUCAGGAUAUGCUGCUCGUCACAAAAGUGAUGAGUAGCAGAAGGGACAUGAGGAUCACCCAUGUAAAAA [Opal 33] | 49.1 | 42
AAGAAGUGAGGAUAUCGAAGACUGUCGAAAAGACAGUCGAACGAGAAGGCACAUGAGGAUCACCCAUGUGGGAA [Marsurpial 65% 6] | 77.1 | 171
AAGAAGUGAGGAUAUGCUGCUCGUCACUUGCGUGAUGAGUAGCAGAAGGCACAUGAGGAUCACCCAUGUAAAAA [Mat - Exaclusion 4 - Eli mod - D2] | 34.8 | 45.7
AAGAAGUGAGGAUAUGUAUCAGUAUAGUUGCCUAUACUGAUGUAGAAGGCACAUGAGGAUCACCCAUGUCCUAA [Exclusion4-cac1] | 21.7 | 30.8
AAGAAUGCAGGAUAUACAUGAGGAUCACCCAUGUAAAAGAAAGAAAGGGAAAAGAAAAGUAGAAGGGCAAAGAA [Usermaatre-setepenamun Osorkon II] | 35.8 | 36.5
AAGAAUGGAGGAUAUACAAGAAAGAAAGAAAAGAAAAGAAAACAUGAGGAUCACCCAUGUAGAAGGCCAUAGAA [EteRNA is fun!] | 24.9 | 13.8

Sequence | apparent KD of MS2 coat protein [1] [nM] | apparent KD of MS2 coat protein [2] [nM]
AAGAAUGGAGGAUAUACAUAAAAGAAAGAAAAGAAAAGAAAACAUGAGGAUCACCCAUGUAGAAGGCCAUAGAA [EteRNA is fun!] | 24.6 | 15.3
AAGACUACAGGAUAUACAUGAGGAUCACCCAUGUAACUGACAAGUAGAUGACGGAGAAGUAGAAGGGUAGUCAA [Ruby 36] | 18.5 | 31.8
AAGACUACAGGAUAUACAUGAGGAUCACCCAUGUAACUGACGGAUAGAUGACGGAGAAGUAGAAGGGUAGUCAA [Ruby 38] | 16.9 | 26.4
AAGAGUAGAGGAUAUACGAAAAAAGAGUCGAAAGACUCGGGACAUGAGGAUCACCCAUGUAGAAGGCUACUCAA [Hyphema Seclusion Mod 62% 5] | 22 | 110
AAGAUCAGAGGAUAUACAGAAGGUGAUGAAAACAUCGCCAAACAUGAGGAUCACCCAUGUAGAAGGCUGAUCAA [JL EX2 2] | 119 | 204
AAGCCACAUGAGGAUCACCCAUGUAAGGAUAUGAACGAAAAUAAAUAAAAAUAAAAGUUCAGAAGGUACAAAAA [66%, Wbt, 23] | 27.1 | 25.3
AAGGAUCGAGGAUAUACAUAGAUACAGAUACAUGUAGACGUACAUGAGGAUCACCCAUGUAGAAGGCGAUCAUA [AJ 27] | 150 | 255
AAGGGACAUGAGGAUCACCCAUGUGAGGAUAUGCUAUGGAAAUAAAAAAUAAAACAUAGCAGAAGGCAUAAAAA [Mat - Exclusion 1 - Eli mod - D38] | 69.3 | 60.5
AAGUCGUUAGGAUAUAUAUGGAUAUACAUUUAUGUAGAACUACAUGAGGAUCACCCAUGUAGAAGGAACGAAUA [AJ 56] | 24.3 | 27.9
AAGUUGCUAGGAUAUACUUGGGCAACAAAUGAACCAAUAUAACAUGAGGAUCACCCAUGUAGAAGGAGCAGAAA [JR_Exc002_Sub301] | 35.2 | 63.5
ACCAAUGGAGGAUAUACAUGAGGAUCACCCAUGUAUAACCUACAUAGGUGAAAAAAAUGUAGAAGGCCAUUGGA [EX3 233: Super Stable 33] | 31.2 | 16.9
ACCGAUCGAGGAUAUACAUGAGGAUCACCCAUGUAACCCAGAAGAAAGGCCUCAGGAUGUAGAAGGCGACGCAA [JR_Exc003_Sub406] | 16.3 | 17.7
AGAAAACAUGAGGAUCACCCAUGUAAGGAUAUGCUGAAAAAACACUGGAAACAGUGCAGCAGAAGGUACAAAGA [Mat - Exclusion 1 - Eli mod - D99] | 22.1 | 43.3
AGAAAACAUGAGGAUCACCCAUGUCAGGAUAUGAAAAAGAAAAGAAAAGAAAGAAGAAUCAGAAGGGACAAGAA [Senedj] | 38.2 | 40.3
AGAAACGUAGGAUAUACAUGAGGAUCACCCAUGUAAAGAAAGAAGGGAGAAAGAAGAAGUAGAAGGACGAAGAA [JR_Exc003_Sub003] | 19.2 | 59.9
AGAAAGCGAGGAUAUACUAAGAAACCUCAAAGAAAGAAGAAACAUGAGGAUCACCCAUGUAGAAGGCGCAAAGA [JR_Exc002_Sub002] | 28.3 | 70.8
AGAAAGUGAGGAUAUACGAAACCAGCCUAAAUGGCUGGAAAGUAGAAGGCACAUGAGGAUCACCCAUGUAAAGA [Ex4 sub 1] | 32.3 | 43.4
AGAUAGUCAGGAUAUACGAACAAGAAAAAAGACGAGAACGGACAUGAGGAUCACCCAUGUAGAAGGGACAAGAA [Diamond 12] | 63 | 37
AGCAAGUCAGGAUAUACGAACAAGACAAAAGACGUGAAGGGACAUGAGGAUCACCCAUGUAGAAGGGACAAGCA [74%, Web mod - With 4 less U's] | 79.1 | 55.8
AGCUAGAGAGGAUAUACAUAAAAAAAAAAAGUCUGAUCCCUACAUGAGGAUCACCCAUGUAGAAGGCUCUGGCA [Ex2 Design 157: Sub-opt 21] | 38.1 | 38.5
AGCUAGCAAGGAUAUGCGAACAUGUCAAAAGACGUGAAGGGACAUGAGGAUCACCCAUGUAGAAGGUGCUAGCA [JL 74% mod 9] | 35.7 | 27.6
AGCUAGUCAGGAUAUACGAAAAUGUCAGAGGCAGUAAGGGAACAUGAGGAUCACCCAUGUAGAAGGGACUAGCA [Diamond 40] | 36.1 | 87.7

— the supplement of paper PMC9170038
